To fix the notation:
B1: Azoarcus group I ribozyme (parent)
chain: GUGCCUUGCGCCGGGAAACCACGCAAGGGAUGGUGUCAAAUUCGGCGAAACCUAAGCGCCCGCCCGGGCGUAUGGCAACGCCGAGCCAAGCUUCGGCGCCUGCGCCGAUGAAGGUGUAGAGACUAGACGGCACCCACCUAAGGCAAACGCUAUGGUGAAGGCAUAGUCCAGGGAGUGGCGAAAGUCACACAAACCGG

Variants of B1 are the subject of the series. Description: reverse-splicing fitness (ratio to wild type); higher = more active; in vitro selection; Mg2+ level not given. The gist of the method:
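An in vitro group I ribozyme library with randomized positions was T7-transcribed and gel-purified. In triplicate, 10 pmol RNA in EPPS pH 7.5 was reacted with 50 pmoles of a 30-nt RNA substrate for 1 h at 37 °C across several added MgCl2 levels (1–48 mM), then stopped with EDTA. Products were reverse transcribed from a substrate-complementary primer, PCR-amplified and sequenced (HiSeq 4000). Fitness is a variant's read proportion after selection over that before, normalised to wild type.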
For C82U A120C A145G C150G, the reverse-splicing fitness was found to be 0.0255.
As to C82U A111C A120G A145G C150U U176A, the reverse-splicing fitness is 0.00886.
For C82U A120G A145C C150A C169U U176G, the reverse-splicing fitness is 0.0041.
For the variant C82A A145G C150U U176C, the reverse-splicing fitness stood at 0.363.
As for A120G A145C C150U C169G U176A, the reverse-splicing fitness stood at 0.102.
With C82U A111C A120G A145C C150U C169G the figure was 0.00662.
With C82U A120U C150U C169G U176C the figure was 0.00284.
Turning to A111U A120U C150G U176A, the reverse-splicing fitness was 0.00718.
With C82A A111C A120U A145U C150A C169U U176C, the reverse-splicing fitness was 0.00301.
As to C82U A120G A145C C150U C169A U176A, the reverse-splicing fitness stood at 0.00991.
With C82G A111C C150A, the reverse-splicing fitness was 0.0254.
With C82A A120U A145C C150A C169G the figure was 0.00223; with C82A A111G A120C A145U C150U C169G U176G, 0.00539.
With C82U A120G A145U C169G U176G, the reverse-splicing fitness turned out to be 0.00314.
Take A145C C150G C169G U176C: the reverse-splicing fitness is 0.00959.
A111C A120C A145G C150A C169G: the reverse-splicing fitness amounted to 0.00782.
In the case of C82A A111G A120C A145G C150G C169A, the reverse-splicing fitness worked out at 0.00974.
Then C82U A111U A120G A145U C150U C169G U176G, with 0.00463; and A111C A120G C150G U176A, with 0.0109.
For C82A A111C A145U C150G C169A U176G, the reverse-splicing fitness amounted to 0.00861.
Regarding C82U A111G A120C C150A C169A U176G, the reverse-splicing fitness turned out to be 0.0042.
With C82A A111U C150G C169G the figure was 0.00756; with C82G A111U A120G C169U, 0.0106; with C82A A111G A145U C169A U176G, 0.00504.
Regarding C82U A111G A120U A145C, the reverse-splicing fitness was 0.0379.
Take C82U A111G A120G A145G C169G U176C: the reverse-splicing fitness was 0.0289.
With C82G A111C A120G A145C C169U U176G, the reverse-splicing fitness is 0.00406.
Turning to C82A A111U A120C A145C C150G C169A U176G, the reverse-splicing fitness was 0.0073.
For C82A A111C A120G A145C C150U C169A U176A, the reverse-splicing fitness came to 0.0112.
In the case of A111C A145G C169A U176G, the reverse-splicing fitness was found to be 0.0065.
Regarding C82U A111C A145G C150G C169A U176C, the reverse-splicing fitness was 0.0111.
On to C82G A111G A120U A145C C150A, for which the reverse-splicing fitness turned out to be 0.00572.
Consider C82G A120U A145G C150U C169G U176C, for which the reverse-splicing fitness stood at 0.00419.
Consider C82A A111U A120U A145U C169A U176C, for which the reverse-splicing fitness turned out to be 0.00197.
C82U A111C A120G A145C C169G: the reverse-splicing fitness is 0.00924.
As for C82G A120U A145C C150U U176G, the reverse-splicing fitness came to 0.00871.
With C82G A111G A120G C169G U176C the figure was 0.0232; with A111C A120U A145G C150U C169U, 0.065.
With A111U A120C A145G C150A U176G, the reverse-splicing fitness worked out at 0.013.
Then C82G A120G A145U C150U C169G, with 0.0343; and C82G A111G A120C C150A U176C, with 0.0277.
Take C82G A120G A145U C169G U176G: the reverse-splicing fitness is 0.00374.
Regarding C82A A111C A120G C169U U176G, the reverse-splicing fitness was 0.00559.
Take A111C A120G A145C C150G C169G: the reverse-splicing fitness amounted to 0.0238.
As to C82G A111U A120G C150A C169U U176A, the reverse-splicing fitness was found to be 0.0244.
With C82U A120G A145C C150A C169U the figure was 0.00698; with C82U A111C A120U C169U U176A, 0.0057.
For the variant C82G A120C A145C C150A C169A U176A, the reverse-splicing fitness is 0.0154.
C82U A111G A120C A145U C150U C169U U176G: the reverse-splicing fitness was 0.00402.
On to A120C A145G C150A C169U U176A, for which the reverse-splicing fitness was 0.0678.
On to C82A A111U A120U A145C C150U C169A U176G, for which the reverse-splicing fitness is 0.00224.
C82A A145U C169A U176A: the reverse-splicing fitness is 0.00948.
Take C82A A145U C169A U176C: the reverse-splicing fitness was determined as 0.00899.
With A111C A120U A145G C150U C169A U176A, the reverse-splicing fitness was 0.00648.
With C82U A145G C150G C169U U176G, the reverse-splicing fitness worked out at 0.00689.
Then A111C A120C A145G C150A C169A U176A, with 0.0145.
For the variant C82U A111U A145U C150A C169A U176G, the reverse-splicing fitness was 0.00735.
Take C82A A111C A120G A145C C150G C169A U176G: the reverse-splicing fitness turned out to be 0.00531.
Take C82A A111G A145C C150G C169A: the reverse-splicing fitness came out at 0.00898.
Consider C82G A111U A120G A145G C169G U176G, for which the reverse-splicing fitness turned out to be 0.00429.
As for C82U A111C A120C A145U C150G C169U, the reverse-splicing fitness was 0.00844.
Consider A111G A120G A145U C150G C169U U176G, for which the reverse-splicing fitness came to 0.00442.
Take C82A A111G A120C A145G C150U C169A U176A: the reverse-splicing fitness was 0.0194.
As for C82U A111G A120U C150A, the reverse-splicing fitness stood at 0.00814.
With A111U A120C A145C C150G U176C the figure was 0.04; with C82A A120G A145G C150A C169A U176C, 0.023; with C82G A111G A120C A145G C169G, 0.0079.
For the variant C82U A111U A120C A145U C150A C169U, the reverse-splicing fitness was determined as 0.00908.
With A111U A120C A145U C169G U176A the figure was 0.00823; with A111G A120C A145G C150U C169U, 0.224; with C82U A120G A145G C150G C169A, 0.00944.
Then A111G A120U A145U C169A, with 0.00636.
As to C82A A111C A145U C150G U176C, the reverse-splicing fitness is 0.0161.
For the variant C82A A111G A120G A145G C150G C169G U176C, the reverse-splicing fitness was determined as 0.0114.
Then C82A A111U A120U C169U U176G, with 0.00228.
Regarding C82A A120U C150A U176C, the reverse-splicing fitness stood at 0.00899.
On to C82A C150U C169A U176C, for which the reverse-splicing fitness stood at 0.0144.
Then C82G A111C A120G C169G U176A, with 0.0184.
With C82U A111C A120C C150A U176G the figure was 0.00688; with C82G A111G A120G A145U C150G U176C, 0.0158.
On to C82A A111C A120G A145C C150G C169U U176C, for which the reverse-splicing fitness turned out to be 0.0101.
A111C A145C C150G C169A U176G: the reverse-splicing fitness came to 0.00574.
Take C82U C150A C169U U176G: the reverse-splicing fitness was found to be 0.0058.
